Data: patent US20060040277A1 (published 2006)

Molecular target: T1, GST-ATIPmouse-short fusion protein (from pGEX-4T1-GST-ATIPmouse-short), on glutathione-agarose beads (mouse, UniProt Q5HZI1 937-1053)
T1 construct: also called GA-GST-ATIPmouse-short; GST-ATIPc; not shown: glutathione S-transferase (GST) encoded by pGEX-4T-1 (Pharmacia)
T1 sequence: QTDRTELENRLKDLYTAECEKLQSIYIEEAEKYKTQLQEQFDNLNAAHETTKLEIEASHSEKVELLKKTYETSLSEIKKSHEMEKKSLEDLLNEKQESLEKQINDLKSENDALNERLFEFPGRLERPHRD
Assay: GST pull-down, SDS-PAGE and immunoblot with anti-MBP

binding result: no binding
B1: MBP-AT1: fusion of Maltose Binding Protein and the C-terminal end of the human AT1 receptor (Leu 297-Glu 359) (receptor, UniProt P30556 297-359, looked up, not shown: large carriers)
chain: LNPLFYGFLGKKFKRYFLQLLKYIPPKAKSHSNLSTKMSTLSYRPSDNVSSSTKKPAPCFEVE
notes: range 297-359
